The data set can be described thus: label from the status in PepcDB records.
With “MSNPNEDSPMILQRIFALALLAMCAALAVMAWPYQAAFSYEPVGPRAYPLLVLGLMGLGLLYLVFRPTPIVRKDDEPELDRETLIKITACVGLLIVFAATFEALGFILSAILVGLPMARLYGGRWLQSAIVVAGMSIFLYWLFDRVMDVPLPLGLLSVLEN”, the protein production entry is “failed”.
As for “VSERKAMQKRLTRRERRFRMMFEGHSAPMLLIDEETGAIEQANAAAVEFYGYERDILMSMSIQDINQLPAEEVARERREAAEDGDEFLFEHELASGAVRTVRVLSAPIPNLDRAGTLLFSVIHD”, the entry is “failed”; as for “MKENLQDRLERENLKIASFGKRVLAFLIDDMVISLIVFIIFYDRLIQAKDLFETTQIVGNFYLGFILLHFSYQAIFTYLYGASLGKILCKIIILDENLLDKPNLIQSCIRSAVRQVSAMAFMLGFAWALSNDLRKAWEDYLARTIVVDVA”, “failed”.
Take “MQAEGKRKKGDLLIILVVLIIGVGAAVPWLWNQLNPGGGNGEHERIAVITRDGKEVARINLDKVTEPQHFHYEGGIALTIVAENGKIRFLESQCPDQICVKTGSLSKPGDFAACLPAGTIVTIEGDEYE”: the protein production entry is on record as “failed”.
“MNDTSNPYATPASALQPTQAVPPVIGDYDFRIGDVISEAWAKIKGVKGILIGAFVVYSVVIQTITFILTLLFGGIGLMSEADPIAFAVGQMIASLVATAVGYPFFTGLTMIGIRRAADQPATFNEMFNYFGMLVPLLLTGLLMMLMVYVGFFLLIIPGLYLSVAYMLALPLVAERGLTPWQALETSRKAISRHWFKVFGLLLVLSLLMLVSMIPLFIGLIWTGPLFVVSMGILYRTIFGVRPLGN”: the protein production result was “failed”.
Then “MDLDPTLLTWAFVVGGALLMLIEAVVPGGIAFFLGIGGVVVGGLRALGLLVDPLSSVVTWVFLSTGLTIALRPLMLRFVQGDVSLAMTDEDAEAMGETVTVVEAVGPESPGRIRFRGATWDARTLEGRLPDGAEAQLLYRDNLTWVVEPADHADLDAELSAAIGSDVSEGDANRSPSTDDTTSDDSGLGYDPSARSSS”, with “failed”; and “MEMRFFVLGAGSWGTVFAQMLHENGEEVILWARRKEIVDLINVSHTSPYVEESKITVRATNDLEEIKKEDILVIAIPVQYIREHLLRLPVKPSMVLNLSKGIEIKTGKRVSEIVEEILGCPYAVLSGPSHAEEVAKKLPTAVTLAGENSKELQKRISTEYFRVYTCEDVVGVEIAGALKNVIAIAAGILDGFGGWDNAKAALETRGIYEIARFGMFFGADQKTFMGLAGIGDLMVTCNSRYSRNRRFGELIARGFNPLKLLESSNQVVEGAFTVKAVMKIAKENKIDMPISEEVYRVVYEGKPPLQSMRDLMRRSLKDEFWASVVDSSL”, with “not failed”; and “MLSIEVTVFAAIAYLTILFSIAYRGDRGASNRVRPYRYSLAQGVHCTSWAFFGTITQSAYYGWAFAPTYVGAIIVFILLHSLQLKLLNYCKHQNITSIADLIGTRYGKSPVLAGVVAITAFIAVVPYISLQLRAVTSSFATVTGFDTNPSWIFDLSFLVALTMIGFGFLFGTRRLSLAEQHSGLMDAIAFESLVKLAAFIIVGLFASYTVFDGLADLFQKSFETQHTQDVLAGREYGGYVFAVHMLLGGLSMFSLPRQFHVGYVENTHSDELKTARWAFPLYLFAINFFILPLSLSALHLAPELANQDTFMLVIPLMMDRPDITLIAFIGGLSAATSMVIIALLALSIMVSNDVVMPIWLRMTRQKLRQFSFTPTRILSIRRMTMVVVMFMAYLYYQATIESMPLVNSGLLSLALLTQLTPAILATVLWRSATQTGVLVGLVVGTALWVILLLVPSIGLQPQVTDIDIANGVLISLGANLICFWLFSLISKNVQTDLQSIQSSDDYEQQPSLTWARLRSLLSRFYDDRQLAAIQRRLRMDLLTPEGQSMVPAPMLVRIERELSAVIGTSASRLLLDTVSEQQEFPVSRVVDWATEASKLYQFNRELLQASVENIPQGISVVDQKLRLVAWNRRYLEIFDYPDGLVRAGMPVEELLRYNARRGLLSNSQNTDVEAEIQKRLNFLRTGSTYHYQRQQGELTVELQGSPMPGGGFVTTYSDITERVEAQRQLQKINQELEERVDERTQQLLSAKEAEEKAHESKSRFFAAVSHDLMQPFNAASLFCEMLQSRLPNEYLPLAVNIQRSLDHAEELLTMLLDMTKLDAGNLKPDYQEFSIDQALLPLVERYQAMAKEKQLRFHYHKSSALVKTDRKLLNRIIQNLLSNALRYTQHGRIVLGFRRHQQHLTICIIDTGSGIPEHKQTEIFREFHQLQSSGDNPGLGLGLSIVERMCRLLRIDLSLSSTLDKGTAFSLTLPVIGWQKEPQPVVIKNDSVDEKLLKDMRVLVIDNDPGVLKATAGLLTDWGAETMTASSFDQARKHPPCDLILADYHLDNGNTGIELVVSIRKLWNSNTPAIINSADPDELLREQALEANAYFIPKPLKSGALKRLLKRIRRI”, with “failed”.
Take “MRGLRSESKVLELVVIPADHSIAELLKMKENEPVNKLVRVRYAEGEPLQYHTSYIPWKAAPGLAQEECTGSLFELLRTKYNIEISRGTESIEPILTDETISGHLLTNVGAPAFLSESLTYDKNEEVVEYAQIITRGDRTKFTVEQSYHS”: the protein production entry is listed as “failed”.
As for “MIKRILTVLLLFPTLVCAQINTERVMTIARNALYFEDYVLSIQYFNQVINAKPYLYEPYFFRALAKVNLEDYQGAEADCDEAIKRNPFVVGAYQVRGLARIRQSKFDGAIEDYQKALHYDPENITLWHNLTLSHIQKKDYDAAKEDLESLLKVSPRYTRAYLMRGEVSLQQKDTVAALKDFNTALELDKYDPDAWSARAIVRLQQSNYAEAESDLDRAIHLSAKNAGNYINRALARFHQNNLRGAMSDYDLALDIDPNNFIGHYNRGLLRARVGDDNRAIEDFDFVIQMEPDNMMAIFNRALLRAQTGDYRGAIKDYTTVINQYPNFLAGYYHRAEARKKIGDKKGAEQDDFKLLKAQLDKQNGGTNKDVAQNQNKDKENQSGENGDESEEGKTRKKSDKNMNNYRKIVIADDSEADQRYTSDYRGRVQDKNVNIKLEPMFALTYYEKSSEVKRSVNFHKFIEDLNLSNVLPKRIRITNMEAPLTEEQVKFHFALIDAHTSAIVDDDKSAPKRFARAIDFYLVQDFSSAVADLTQAILLDGDFFPAYFMRALIRCKQLEYQKAEQAAEADMPSGAAVKEVSAVDYEVVRKDLDKVITLAPDFVYAYYNRANVAAMLKDYRAAIVDYDKAIQLSPDFADAYFNRGLTHIFLGNNKAGISDLSKAGELGVVSAYNVIKRFTDQTE”, the entry is “failed”.
Then “MYSELKEGVNLYNKKDYQEALVFFLSVSTEDVLIKIEINYYIGLIYSRLSEYEQALEYLEQVVTASKDIAKVYQCRLILAFIYANTGRTRLAEFELSKLIEAGYESVQVFSSLAYVYYEHHEIEKAIDYYEKALKTAPENSTALNGLAYILAETDRDLTRSLLLCKKAVEKQPENPAYLDSMALIYHKMNLPSEAKSYITRAKEKLPDNKIILKHFEMISSDAREA”, with “failed”; and “MIGVLSGFFVVWAIILVGMFVGRRNILGENARSVLSSLTFFVASPALLFETLSKAKLHDVFAAPLLVTAVGAVVTGLLFFLIAKFWLKRAMPEALMSSMSSSLANSANLGIPIAVFVLGDASYVAPLLIFQLAFFTPLYLMALDASTSSHRTTPLRFLLMIVKNPMIVGSALGLLVAGTGFHVPTLILEPIHLIGGAAIPAMLMSFGMSLNGSKPLRKASGRRVDTLLASGFKLIVHPLIAYLFARFALGMDGHALFAVVVTSALPTAQNVFVAANRYQAGITVAKDTVLITTIVAVPAMIAVALLLT”, with “failed”; and “MIRDYKSKLEFLAFYDELTGLPNKNSLIRWLNLKVSQMDCIDTYLIFLEVRDLEKLNVTYGYDLVDELIIHISKRIKDIAGEGNKAFKIGFDRFAIICKSENISDFIERMLSQLLLPYNVNGNLIRVNFNIGAAQIENSNEAAANLMRRCDLALIKAKEEGLNEYVIFKPSIELEHHHHHH”, with “failed”.
Then “MTGQTQGKAVIARERISFWGGFDPQTGRIVDPYSSLRGRDISDCVLILLSSKGSSGTSGMLSLATRAGHAPAAMIQVEMDPVTVMGCLVNNIPLLQASGFDPFEQIQDGDLVRIDGENGTITLTPGQALEHHHHHH”, with “failed”; and “MTTTPDWIMIGGDGPESYNQQSSYQRALLEATKDKMTKAISANLDLDLISNRFIVADFGCASGPNTFVAVQNIIDAVEEKYRRETGQNPADNIEFQVLFNDFSLNDFNTLFQTLPPGRRYFSAGVPGSFFERVLPKESFHIGVMSYAFHFTSKIPKGIMDRDSPLWNKDMQCTGFNPAVKKAYLDQYSIDTKILLDARAEELVPGGLMLLLGSCLRDGVKMSETPKGTVMDFIGESLSDLAKQGVTEQEKVDTFRTSIYFAEQGEIRQIIEENGKFTIEAFEDIIHAKNEFPFDPKTLAISFKAFYGAFISAHFGVEVMRKAFELVEVKAREQISRLHNSKPGMQYLIVLRKN”, with “failed”.
As for “MAGLPGSVALIIVATAVIWKGSAYFERAAERLSKYYGLPVAVHGAIVVAVGSSFPEISSVVISTVIHDEFSLGVGAIVGSAIFNLLVIPALAALSSEELRSTRDIVHKDAQFYIISVLILFIVFALGATYVPGGTNRAAILTPTLVAVPLMAYGIYVFLHQQDASEHVADETHSVRPGREWGMLGVGLVIITVGVEGMVQGALSLGVIFDTPTFLWGLTVIAAGTSLPDAFVSVRAAKDDDSVTSLTNVLGSNTFNLLVAIPVGVLLAGRATIDFLVAIPTMGFLGAATLVFIVFIRTDLELTDREAYTLLGLYVVFVCWMALESVGLIETVSGI”, the protein production result is listed as “failed”.
In the case of “MLVNFIKNFIPHRFYSSKTEIPVVRLHGAIIDSSSSIARTLSLGRCANLLDKAFAYKKAPAVAVIINSPGGSPVQSRLIFKRIRDLAEEKKKQVLMFIEDIAASGGYMIACAGDEIFADPSSIVGSIGVVSASFGFPELLKKIGIERRVYTAGKNKVTLDPFQPEKKTDIEHLKSLQLEVHKTFIDLVKERRAEKLSNDPNIFTGMFWSGKKSVELGLIDGLNDVRSVIKERFGDDTKLRLIIPPKSLFGPKTPSGVTAHAVHTAIDSALMVAQERALWQYYGLLEHHHHHH”, the protein production result is on record as “not failed”.
As for “MHAPAILRQSGIDALLAGDGSPEIMVTDSPSPPVKRSKIWELSRTYHCPVIGLCLPASDLERFAKRFHFKASINNAHDLHVEAVCRVTSRNVVSETIHKYLDRLYESHIKQFDAAKTDSEVLALWETCFTNERIAGPLWAALTHKRISSEGREQIHDRVHMHMHEAVAELSATQHRLNQAEQMLKELAGQLEQIREKHVQTESRLRQQLQQAAAEIKQLQQSRRESETTRQRLETLESGQAILRMGQRLMQLTVENEQLQIKAAQADDLKQSLKNACHNLTELYHERDTLRVERDTLENLLLTLNSGSTTDTETADTTETKMAAYECILCVGGRSTLLPQYRTLARQLGLKLSHHDGGQEDALSRLPEMIYGAAAVICPTDYVSHAAYYQVKRLCRLGHKPCLLFKGTGVSSFAAALTKITSGQASINSSPVDTVETTT”, the entry is “failed”.
As for “MKDFFPLQQGGLVLEWVNTETKLRQLWAFRHRIFREQLQWVPLCEDGFDRDAYDDFSDNLVLCRDGEVVGAIRLTTGEHPFMLEEEFSRLLAPGERIGKGAEYSEITRLAVDREALGARESIMAARLLYLGAWLWSQVQGVRWMYFVVEPVFYRRLVMMGFPIVPVGIPRPLDGGVMSMTGLLDWRQAKTELIRSLTRGVSSPSACQALWHEYDYSH”, the entry is “failed”; as for “MKTEMLHTQEDILKMLDSLLRPAEPFWNEFYENREKDVPFFENVPDENLVSYIQKERVLKGKVLELGCGPGRNAIYLANEGFDVTAVDLSVEGINWAKERALAKGVEIHFICDSIFNLEVQNEFDFVYDSGCLHHIPPHRRINYVDLIKNSLKSGGYFGLTCFAAGDLDERNGSEITDWDVYREWSLQGGLAYSEEKLREIFKELEVIEIRRMKQMKQPNEMFGESFLWTALFKKK”, “failed”.

The values above are taken from a protein production outcome set (Wang et al. 2014).
